This is an account of results in patent US20170210802A1 (INNATE PHARMA, published 2017).

The target of test [1] is T1, Human NKp46 recombinant proteins (human, UniProt O76036 22-258, limits assumed).
T1 construct: also called recombinant human NKp46
Kind of test: SPR (Biacore T100), antibody captured on Protein-A chip, recombinant human NKp46 injected (6.25-400 nM), 1:1 kinetic model. The procedure:
SPR measurements were performed on a Biacore T100 apparatus (Biacore GE Healthcare) at 25° C. In all Biacore experiments HBS-EP+(Biacore GE Healthcare) and NaOH 10 mM served as running buffer and regeneration buffer respectively. Sensorgrams were analyzed with Biacore T100 Evaluation software. Protein-A was purchase from (GE Healthcare). Human NKp46 recombinant proteins were cloned, produced and purified at Innate Pharma.
Protein-A proteins were immobilized covalently to carboxyl groups in the dextran layer on a Sensor Chip CM5. The chip surface was activated with EDC/NHS (N-ethyl-N′-(3-dimethylaminopropyl) carbodiimidehydrochloride and N-hydroxysuccinimide (Biacore GE Healthcare)). Protein-A was diluted to 10 μg/ml in coupling buffer (10 mM acetate, pH 5.6) and injected until the appropriate immobilization level was reached (i.e. 2000 RU). Deactivation of the remaining activated groups was performed using 100 mM ethanolamine pH 8 (Biacore GE Healthcare).
Monovalent affinity study was done following a regular Capture-Kinetic protocol recommended by the manufacturer (Biacore GE Healthcare kinetic wizard). Seven serial dilutions of human NKp46 recombinant proteins, ranging from 6.25 to 400 nM were sequentially injected over the captured Bi-Specific antibodies and allowed to dissociate for 10 min before regeneration. The entire sensorgram sets were fitted using the 1:1 kinetic binding model.

In test [2] the target is T2, human FcRn (recombinant, Example 10) (human, UniProt P55899 24-297; P61769 21-119, limits assumed).
T2 construct: also called recombinant FcRn proteins
T2 sequence (P55899 24-297 limits assumed, form in doubt, chain 1 of 2): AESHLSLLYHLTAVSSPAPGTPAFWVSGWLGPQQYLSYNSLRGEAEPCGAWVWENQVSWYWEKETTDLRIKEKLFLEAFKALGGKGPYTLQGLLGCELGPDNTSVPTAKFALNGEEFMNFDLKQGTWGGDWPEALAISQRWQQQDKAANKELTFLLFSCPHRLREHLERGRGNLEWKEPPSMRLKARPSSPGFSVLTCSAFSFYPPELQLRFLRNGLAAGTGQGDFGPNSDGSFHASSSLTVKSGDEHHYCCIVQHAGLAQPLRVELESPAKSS
T2 sequence (P61769 21-119 limits assumed, form in doubt, chain 2 of 2): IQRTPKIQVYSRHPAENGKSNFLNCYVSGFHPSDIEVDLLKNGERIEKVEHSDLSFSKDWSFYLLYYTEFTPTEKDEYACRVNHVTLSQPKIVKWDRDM
Kind of test: SPR, recombinant FcRn immobilised on CM5, SCK/Two state reaction. For orientation: Surface plasmon resonance follows binding to a sensor surface in real time, without labels.

T1 sequence (O76036 22-258 limits assumed): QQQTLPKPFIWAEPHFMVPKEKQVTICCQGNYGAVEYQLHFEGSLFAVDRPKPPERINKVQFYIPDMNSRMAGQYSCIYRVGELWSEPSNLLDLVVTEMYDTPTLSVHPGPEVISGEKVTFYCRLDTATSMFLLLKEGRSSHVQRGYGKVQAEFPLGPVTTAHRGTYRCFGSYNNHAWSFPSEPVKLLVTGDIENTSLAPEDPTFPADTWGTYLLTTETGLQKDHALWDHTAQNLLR

B1: CD19-F5-NKp46-3 (bispecific antibody, human IgG1, kappa)
chain 1: not shown
chain 2: not shown
chain 3: DIVMTQSPATLSVTPGDRVSLSCRASQSISDYLHWYQQKSHESPRLLIKYASQSISGIPSRFSGSGSGSDFTLSINSVEPEDVGVYYCQNGHSFPLTFGAGTKLELKASTKGPSVFPLAPSSKSTSGGTAALGCLVKDYFPEPVTVSWNSGALTSGVHTFPAVLQSSGLYSLSSVVTVPSSSLGTQTYICNVNHKPSNTKVDKRVEPKSCDKTH
notes: Heterotrimer with dimeric Fc domain; also called Format 5 (F5)
As to B1, in test [1], the Kd came to 67 nM, the koff is 0.0051 s⁻¹ and the kon was 75600 M⁻¹ s⁻¹. In test [2], the Kd came out at 2.6 nM.

B2: CD19-F6-NKp46-3 (bispecific antibody, human IgG1, kappa)
chain 1: not shown
chain 2: not shown
chain 3: DIVMTQSPATLSVTPGDRVSLSCRASQSISDYLHWYQQKSHESPRLLIKYASQSISGIPSRFSGSGSGSDFTLSINSVEPEDVGVYYCQNGHSFPLTFGAGTKLELKASTKGPSVFPLAPSSKSTSGGTAALGCLVKDYFPEPVTVSWNSGALTSGVHTFPAVLQSSGLYSLSSVVTVPSSSLGTQTYICNVNHKPSNTKVDKRVEPKSCDKTH
notes: also called Format 6 (F6)
For the molecule B2, in test [1], the Kd came to 63 nM, the koff is 0.00503 s⁻¹ and the kon worked out at 79300 M⁻¹ s⁻¹. Further, the Kd in test [2] was 6 nM.

For orientation: Kd means the free concentration of one partner at which half of the binding sites on the other are occupied at equilibrium, for simple one-to-one binding. One may read the koff as the rate constant with which the complex falls apart. A word on the kon: it is the second-order rate constant of association.
